Values quoted from earlier work, collected in patent US20090069376A1, “VLA-4 Antagonists” (priority 2005, published 2009).

Biological target: VLA-4 (Homo sapiens, UniProt P13612)
Conditions: early clinical trials

- receptor occupancy: > 80%
Substance: natalizumab
